In patent US10865391B2, “Glutamate dehydrogenase mutants and their application in preparation of L-phosphinothricin” (ZHEJIANG UNIVERSITY, priority 2018, dated 2020):
Substitutions are numbered along the chain they refer to. In names and notes the source's numbering stands.

B1: LsGluDHp-V386A: LsGluDHp mutant V386A, SEQ ID NO. 8 (protein)
chain: MTITTVSNEQLAKEYVDGVFEQLKQQNCHQAEFLQAAEEIFISLVPVFVQHPEYIKANILSRIVEPDRIISFRVAWQDDHNQVQVNRGYRVQYSNVMGPYKGGLRFHPSVNESIIKFLGFEQIFKNALTGQPIGGGKGGSNFDPKGKSDSEIMRFCQAFMTELYRHIGPDVDVPAGDIGVGAREVGYLWGQYKRLTKASESGVLTGKTPGYGGSLARKEATGYGTVYFVNEMLKDVNDSFEGKTVVVSGSGNVSTYAIEKAQQYGAKVVACSDSSGYIYDPEGLDLDVIKEIKEVKGDRISTYVSYRPNATFTNGCTGIWTIPCDIALPCATQNEINGESARTLISNGVKAIGEGANMPSDLEAINEFLNAGVLFGPAKAANAGGAAVSALEMAQDSSRVFWSFEEVDAKLHQIMKDIYSDSKAAAEKYGFPGNLVMGANIAGFIKVADGMLTEGIY
modifications: Lysinibacillus sphaericus glutamate dehydrogenase mutant
B2: PeGluDH-V375A: PeGluDH mutant V375A, SEQ ID NO. 6 (protein)
chain: MIESVDHFLARLQQRDPAQPEFHQAVEEVLRSLWPFLEQNPHYLEAGILERMVEPERAVLFRVSWVDDQGKVQVNRGYRIQMSSAIGPYKGGLRFHPSVNLGVLKFLAFEQVFKNSLTSLPMGGGKGGSDFDPKGKSDAEVMRFCQAFMSELYRHIGADLDVPAGDIGVGAREIGFLFGQYKRLANQFTSVLTGKGMTYGGSLIRPEATGYGCVYFAEEMLKRQEQRIDGRRVAISGSGNVAQYAARKVMDLGGKVISLSDSEGTLFCEAGLTDEQWDALMELKNVKRGRISELAGRFGLEFRKGQTPWSLACDIALPCATQNELNADDARTLLRNGCICVAEGANMPTTLDAVDIFIEAGILYAPGKASNAGGAAVSGLEMSQNAMRLLWTAGEVDSKLHHIMQSIHHVCVHYGEEADGRINYVKGANIAGFVKVADAMLAQGVV
modifications: Pseudomonas entomophila glutamate dehydrogenase mutant
B3: PeGluDH-A164G: PeGluDH mutant A164G, SEQ ID NO. 5 (protein)
chain: B2 chain with A164G, A375V
modifications: Pseudomonas entomophila glutamate dehydrogenase mutant
B4: CgGluDH-A166G: CgGluDH mutant A166G, SEQ ID NO. 3 (protein)
chain: MTVDEQVSNYYDMLLKRNAGEPEFHQAVAEVLESLKIVLEKDPHYADYGLIQRLCEPERQLIFRVPWVDDQGQVHVNRGFRVQFNSALGPYKGGLRFHPSVNLGIVKFLGFEQIFKNSLTGLPIGGGKGGSDFDPKGKSDLEIMRFCQSFMTELHRHIGEYRDVPGGDIGVGGREIGYLFGHYRRMANQHESGVLTGKGLTWGGSLVRTEATGYGCVYFVSEMIKAKGESISGQKIIVSGSGNVATYAIEKAQELGATVIGFSDSSGWVHTPNGVDVAKLREIKEVRRARVSVYADEVEGATYHTDGSIWDLKCDIALPCATQNELNGENAKTLADNGCRFVAEGANMPSTPEAVEVFRERDIRFGPGKAANAGGVATSALEMQQNASRDSWSFEYTDERLQVIMKNIFKTCAETAAEYGHENDYVVGANIAGFKKVADAMLAQGVI
modifications: Corynebacterium glutamicum glutamate dehydrogenase mutant
B5: CgGluDH-V376A: CgGluDH mutant V376A, SEQ ID NO. 4 (protein)
chain: B4 chain with G166A, V376A
modifications: Corynebacterium glutamicum glutamate dehydrogenase mutant
B6: GsGluDH-A153G: GsGluDH mutant A153G, SEQ ID NO. 9 (protein)
chain: MAADKHTEEKGQQDDVLASTQIVIHRALEKLGYPEEVYELLKEPIRVLTVRIPVRMDDGSVKIFTGYRAQHNDAVGPTKGGVRFHPDVTEREVKALSIWMSLKCGIVDLPYGGGKGGIVCDPRTMSFRELERLSRGYVRAISQIVGPTKDIPGPDVFTNSQIMAWMMDEYSRIREFDSPGFITGKPLVLGGSHGRETATAKGVTICIREAAKKRGLSLEGARVVVQGFGNAGSYLAKFLHDAGAKVVGISDVYGALYDPNGLDIDYLLERRDSFGTVTKLFKNTISNKELLELDCDILVPAAIENQITAENAPRIKASIVVEAANGPTTLEATEILTQRGILLVPDVLASAGGVTVSYFEWVQNNQGYYWTEEEVEQRLEKVMVKAFNNVYEMAQTRRVDMRLAAYMVGVRKMAEACRFRGWV
modifications: Geobacillus stearothermophilus glutamate dehydrogenase mutant
B7: LsGluDH-A144G: LsGluDH mutant A144G, SEQ ID NO. 15 (protein)
chain: MSENLNLFTSTQDVIQDALNKLGYDEAMYELLKEPLRMLQVRIPVKMDDGTTKVFTGYRAQHNDAVGPTKGGVRFHPQVSEEEVKALSMWMTLKCGIVDLPYGGGKGGVICDPRQMSMGEIERLSRGYVRAVSQIVGPTKDIPGPDVFTNAQIMAWMMDEYSRMDEFNSPGFITGKPLVLGGSQGRDRATAQGVTIVIEEAAKKRGIDIKGARVVIQGFGNAGSFLAKFMHDLGAKVIGISDAYGALHDPEGLDIDYLLDRRDSFGTVTTLFENTISNKELLELDCDILVPAAIENQITADNAHNIKADIVVEAANGPTTAEATKILTERGILLVPDVLASAGGVTVSYFEWVQNNQGYYWTEEEVEERLYKKMVEAFDNVYTTATTRNINMRLAAYMVGVRRTAEASRFRGWV
modifications: Lysinibacillus sphaericus glutamate dehydrogenase mutant
B8: BsGluDH-A154G: BsGluDH mutant A154G, SEQ ID NO. 11 (protein)
chain: MSAKQVSKDEEKEALNLFLSTQTIIKEALRKLGYPGDMYELMKEPQRMLTVRIPVKMDNGSVKVFTGYRSQHNDAVGPTKGGVRFHPEVNEEEVKALSIWMTLKCGIANLPYGGGKGGIICDPRTMSFGELERLSRGYVRAISQIVGPTKDIPGPDVYTNSQIMAWMMDEYSRLREFDSPGFITGKPLVLGGSQGRETATAQGVTICIEEAVKKKGIKLQNARIIIQGFGNAGSFLAKFMHDAGAKVIGISDANGGLYNPDGLDIPYLLDKRDSFGMVTNLFTDVITNEELLEKDCDILVPAAISNQITAKNAHNIQASIVVEAANGPTTIDATKILNERGVLLVPDILASAGGVTVSYFEWVQNNQGYYWSEEEVAEKLRSVMVSSFETIYQTAATHKVDMRLAAYMTGIRKSAEASRFRGWV
modifications: Bacillus subtilis glutamate dehydrogenase mutant
B9: BmGluDH-A156G: BmGluDH mutant A156G, SEQ ID NO. 13 (protein)
chain: MVADKMQDSKNSQEEKHDVLKSTQTVIHKALEKLGYPDEVYELLKEPLRMMTVKIPVRMDDGSVKIFTGHRAQHNDAVGPTKGGIRFHPNVTEKEVKALSIWMSLKCGIVDLPYGGGKGGIVCDPRNMSFGELERLSRGYVRAISQIVGPTKDIPGPDVFTNSQIMAWMMDEYSRIDEFNSPGFITGKPLVLGGSHGRETATAKGVTICIREAAKKRGIELQGARVVVQGFGNAGSFLAKFMHDAGAKIVGISDAYGALHDPNGLDIDYLLDRRDSFGTVTKLFNNTISNKELLELDCDILVPAAIENQITEENAHNIQASIVVEAANGPTTLEATRILSERGILLVPDVLASAGGVTVSYFEWVQNNQGYYWTEEEVEEKLEKVMVKSFNNIYETSTTRKVDMRLAAYMIGVRKMAEGSRFRGWI
modifications: Bacillus megaterium glutamate dehydrogenase mutant
B10: CgGluDH: wild type glutamate dehydrogenase from Corynebacterium glutamicum, NP_601279.1, NADPH-specific (protein, UniProt P31026 1-447, looked up)
NADP-specific glutamate …: B4 chain with G166A

Assay: Standard enzyme activity measurement toward PPO, crude enzyme (per volume fermentation broth)
Assay type: biochemical
Settings: enzyme activity of mutant versus wild type, toward PPO
Procedure: The preserved recombinant E. coli is streaked onto the plate for activation. Single colonies are picked and inoculated into 5 mL LB liquid medium containing 50 μg/mL kanamycin and cultured at 37° C. for 12 h. The culture is transferred to 50 mL fresh LB liquid medium containing 50 μg/mL kanamycin at a 2% inoculum, and then incubated at 37° C. until the OD600 reaches 0.6; after that, add IPTG to a final concentration of 0.5 mM, and then proceed with induction culture under the temperature of 18° C. for 16 h.
After the cultivation, the culture is centrifuged at 10000 rpm for 10 min; discard supernatant, and collect cells. The harvested cells are washed for 2 times using pH 7.5 50 mM phosphate buffer. After that, the cells are re-suspend into the pH 7.5 phosphate buffer and disrupted ultrasonically (400W for 30 times, Ultrasonic time is 3 s, and the interval is 7 s). The cell disrupted solution is centrifuged at 12000 g for 5 min at 4° C. to remove the precipitate, and the supernatant obtained is the crude enzyme containing recombinant glutamate dehydrogenase
The standard enzyme activity measurement system: Appropriate amount of enzyme, 100 mM substrate, 10 mM coenzyme (NADH or NADPH), 500 mM NH4^+ ((NH4)2SO4); total system volume is up to 400 μL; reaction medium is pH 7.5 phosphate buffer. 35° C. reaction for 10 min; after that, add 40 uL 5 M NaOH to terminate reaction.
Definition of enzyme activity unit: The quantity of enzyme as required by generation of 1 μmol L-phosphinothricin per minute under standard reaction conditions.
Proceed with induction culture of constructed mutants, and prepare crude enzyme solution.
B1 gave a Fold change of 588.
For B2, the Fold change was 107.
B3 showed a Fold change of 110.
Work on B4 yielded a Fold change of 31.
Work on B5 yielded a Fold change of 225.

Same assay, conditions: toward PPO; crude enzyme, standard system; N.D. = no detectable activity
For B6, the “Enzyme activity of mutants (U/mL)” value was 0.04 U/mL.
With B7 the “Enzyme activity of mutants (U/mL)” value was 1.69 U/mL.
For B1, the “Enzyme activity of mutants (U/mL)” value was 12.34 U/mL.
With B8 the “Enzyme activity of mutants (U/mL)” value was 0.50 U/mL.
For B2, the “Enzyme activity of mutants (U/mL)” value was 11.06 U/mL.
For B3, the “Enzyme activity of mutants (U/mL)” value was 11.29 U/mL.
With B9 the “Enzyme activity of mutants (U/mL)” value was 0.34 U/mL.
In the case of B10, the “Enzyme activity of wild type (U/mL)” value is reported as 0.011 U/mL.
With B4 the “Enzyme activity of mutants (U/mL)” value was 0.34 U/mL.
For B5, the “Enzyme activity of mutants (U/mL)” value was 2.48 U/mL.
